The experiment has as its target T1, recombinant human PDGF receptor α extracellular domain (PDGF sRα) (human, UniProt P16234 24-528, biotin (biotin-X-NHS) in the direct-binding ELISA on PDGF-coated wells; not said to be biotinylated in the blocking ELISA).
T1 construct: PDGF receptor α, human, extracellular domain; also called soluble PDGF receptor α; sRα-bio; source: bought: R&D Systems
The experiment can be described thus: ELISA; serially diluted biotinylated PDGF sRα added to PDGF-coated wells; detected with streptavidin-HRP. The note with it: both partners purified.

T1 sequence (P16234 24-528): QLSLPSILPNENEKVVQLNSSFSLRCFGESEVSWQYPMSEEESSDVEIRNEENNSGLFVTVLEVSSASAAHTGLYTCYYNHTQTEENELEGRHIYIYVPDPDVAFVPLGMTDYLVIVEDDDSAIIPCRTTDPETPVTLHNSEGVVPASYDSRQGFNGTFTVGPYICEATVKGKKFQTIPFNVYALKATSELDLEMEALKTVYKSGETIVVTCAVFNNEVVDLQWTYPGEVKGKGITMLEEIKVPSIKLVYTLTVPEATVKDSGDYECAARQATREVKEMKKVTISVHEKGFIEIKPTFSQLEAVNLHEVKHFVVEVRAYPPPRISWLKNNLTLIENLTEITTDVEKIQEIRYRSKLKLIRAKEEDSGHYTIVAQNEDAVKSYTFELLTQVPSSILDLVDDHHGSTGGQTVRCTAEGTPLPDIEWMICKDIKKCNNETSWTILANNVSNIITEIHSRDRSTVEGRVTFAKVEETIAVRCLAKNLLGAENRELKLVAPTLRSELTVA

B1: recombinant human PDGF-BB (ligand, UniProt P01127 82-190, looked up)
chain: SLGSLTIAEPAMIAECKTRTEVFEISRRLIDRTNANFLVWPPCVEVQRCSGCCNNRNVQCRPTQVQLRPVQVRKIEIVRKKPIFKKATVTLEDHLACKCETVAAARPVT
notes: PDGF-B chain, human; homodimer; source: bought: R&D Systems
With B1, the binding result was “binds”.

These data come from paper PMC3084709, “TMEFF2 Is a PDGF-AA Binding Protein with Methylation-Associated Gene Silencing in Multiple Cancer Types Including Glioma” (PLoS ONE, 2011).
